In assay [1] the target is cyno EpCAM (cyno). The assay can be described thus: ratio of cyno to human binding affinity.
Assay [2] has as its target cyno EpCAM (cyno). Briefly: column 'Cyno binding affinity (nM)'; method not stated.
Assay [3] concerns the target T1, human EpCAM (human, UniProt P16422 24-265, limits assumed).
T1 sequence (looked up): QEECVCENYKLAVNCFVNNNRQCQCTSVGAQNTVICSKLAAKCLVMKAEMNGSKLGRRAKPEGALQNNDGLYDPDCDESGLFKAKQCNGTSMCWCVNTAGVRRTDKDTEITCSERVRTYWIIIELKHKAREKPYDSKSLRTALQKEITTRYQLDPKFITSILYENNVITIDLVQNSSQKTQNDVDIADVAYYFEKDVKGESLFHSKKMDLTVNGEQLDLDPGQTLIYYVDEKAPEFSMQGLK
The assay can be described thus: column 'Human binding affinity (nM)'; method not stated.

B1: hVIB-13 (VHH)
VHH: QVQLVESGGGLVQPGGSLTLSCAASGTGSIFSINLMGWYRQAPGKQRELVARITSGDSTVYADSVKGRFTISRDNSKNTLYLQMNSLRPEDTAVYYCNLLLRSSPGATTPYWGQGTLVTVSS
notes: Tied by label only (hVIB-13 = h13); also called EpCAM h13; sdABD-EpCAM h13
On to B1, for which the Cyno/Human cross reactivity in assay [1] worked out at 4.5 ratio cyno/human. The Kd in assay [2] came out at 12.7 nM; in assay [3] it was 2.8 nM.

B2: hVIB-23 (VHH)
VHH: QVQLVESGGGLVQPGGSLTLSCVISGSFSALWAMRWYRQAPGQQRELVASSRGGTTSYADSVKGRFTISRDNSKNTLYLQMNSLRPEDTAVYYCNAIDGHLAYWGQGTLVTVSS
notes: Tied by label only (hVIB-23 = h23); also called EpCAM h23; sdABD-EpCAM h23
With B2, the Cyno/Human cross reactivity in assay [1] was found to be 12.6 ratio cyno/human. Further, the dissociation constant Kd is 58.8 nM in assay [2] and 4.1 nM in assay [3].

One may read the Kd as the concentration at which binding is half-saturated. Low values mean tighter binding, high ones weaker binding.

The record behind these values is patent publication US20230340159A1 (published 2023).
